Assay results taken from patent US8529906B2, “Compositions for inducing immune responses” (Novartis Vaccines and Diagnostics, Inc., priority 2003, dated 2013).
“Also recorded” adds a separate entry of the source.

B1: small OVA-protein particles: Heat-stabilized ovalbumin protein particles formed by acetone coacervation, about 250 nm in diameter (protein, UniProt P01012 2-386, looked up)
Ovalbumin: GSIGAASMEFCFDVFKELKVHHANENIFYCPIAIMSALAMVYLGAKDSTRTQINKVVRFDKLPGFGDSIEAQCGTSVNVHSSLRDILNQITKPNDVYSFSLASRLYAEERYPILPEYLQCVKELYRGGLEPINFQTAADQARELINSWVESQTNGIIRNVLQPSSVDSQTAMVLVNAIVFKGLWEKAFKDEDTQAMPFRVTEQESKPVQMMYQIGLFRVASMASEKMKILELPFASGTMSMLVLLPDEVSGLEQLESIINFEKLTEWTSSNVMEERKIKVYLPRMKMEEKYNLTSVLMAMGITDVFSSSANLSGISSAESLKISQAVHAAHAEINEAGREVVGSAEAGVDAASVSEEFRADHPFLFCIKHIATNAVLFFGRCVSP
modifications: heat-stabilized particles
notes: Heat-stabilized ovalbumin protein particles formed by acetone coacervation, about 250 nm in diameter
B2: large OVA-protein particles: Heat-stabilized ovalbumin protein particles formed by acetone coacervation, about 2.5 μm in diameter (protein, UniProt P01012 2-386, looked up)
Ovalbumin: B1 Ovalbumin
modifications: heat-stabilized particles
notes: Heat-stabilized ovalbumin protein particles formed by acetone coacervation, about 2.5 μm in diameter

System: EG7 (EL4 transfected with ovalbumin) and EL4 target cells
Experiment: CTL activity (51Cr release cytotoxic cell assay) of spleen cells from mice immunized with OVA formulations
Assay type: in vivo
Details: subcutaneous, dose 10 μg, boosted at 14 and 28 days; for CTL activity relative to the other OVA formulations: comparison in words; for CTL response: percent specific 51Cr release
Procedure: Ovalbumin, PLG/OVA-entrapped particles, small OVA-protein particles (250 nm) and large OVA-protein particles (2500 nm), produced as described above, were administered subcutaneously to mice (dose=10 μg). The animals were boosted at 14 and 28 days. […] two weeks following the last immunization and CTL activity assayed as described in Doe et al., Proc. Natl. Acad. Sci. (1996) 93:8578-8583.
Lymphocyte cultures were prepared as follows. Spleen cells (sc) from immunized mice were cultured in 24-well dishes at 5×10^6 cells per well. Of those cells, 1×10^6 were sensitized with synthetic epitopic peptides from EG7 (EL4 transfected with ovalbumin) and EL4 proteins at a concentration of 10 μM for 1 hour at 37° C., washed, and cocultured with the remaining 4×10^6 untreated sc in 2 ml of culture medium [50% RPMI 1640 and 50% alpha-MEM (GIBCO)] supplemented with heat-inactivated fetal serum, 5×10^−5 M 2-mercaptoethanol, antibiotics, and 5% interleukin-2 (Rat T-Stim, Collaborative Biomedical Products, Bedford, Mass.). Cells were fed with 1 ml of fresh culture medium on days 3 and 5, and cytotoxicity was assayed on day 6.
The cytotoxic cell assay was conducted as follows. EG7 (EL4 transfected with ovalbumin) and EL4 target cells used in the ^51Cr release assays express class I but not class II MHC molecules. Approximately 1×10^6 target cells were incubated in 200 μl of medium containing 50 μCi (1 Ci=37 Gbq) of ^51Cr and synthetic Ovalbumin peptides (1 μm) for 60 min and washed three times. Effector (E) cells were cultured with 5×10^3 target (T) cells at various EST ratios in 200 μl of culture medium in 96-well round-bottom tissue culture plates for 4 hours. The average cpm from duplicate wells was used to calculate percent specific ^51Cr release.

| Molecule | CTL activity relative to the other OVA formulations | CTL response |
| --- | --- | --- |
| B1 | activity comparable to the large OVA-protein particles; also recorded: more active, e.g., elicited a greater immune response than the PLG/OVA-entrapped particles and ovalbumin alone formulations | elicited a CTL response |
| B2 | more active, e.g., elicited a greater immune response than the PLG/OVA-entrapped particles and ovalbumin alone formulations | elicited a CTL response |
